The text below walks through data of patent US5677163.

For the substance “B. amyloliquefaciens subtilisin (protease) (enzyme)”, the Hydrolysis Rate (A405 /min) was found to be 0.25 A405/min with sAAPMpNA; 0.011 A405/min with sAAApNA; 0.002 A405/min with KAAFpNA; 0.0017 A405/min with VLKpNA; 0.83 A405/min with sAAPFpNA; 0.45 A405/min with sAAPLpNA.
B. lentus protease (Savinase) (enzyme): the Hydrolysis Rate (A405 /min) in the assay with sAAPMpNA came out at 0.75 A405/min; with sAAApNA, 0.176 A405/min; in the assay with KAAFpNA it was 0.08 A405/min; with VLKpNA it was 0.0003 A405/min; with sAAPFpNA, 1.15 A405/min; with sAAPLpNA it was 0.23 A405/min.
For “LG-12 protease (Bacillus sp. strain LG-12 subtilisin, product of the sprC gene) (enzyme)”, the Hydrolysis Rate (A405 /min) turned out to be 0.19 A405/min with sAAPMpNA; 0.014 A405/min with sAAApNA; 0.006 A405/min in the assay with KAAFpNA; 0.0008 A405/min with VLKpNA; 0.87 A405/min with sAAPFpNA; 0.58 A405/min in the assay with sAAPLpNA.
